Data published in patent publication US20190142971A1, “FORMULATION AND DELIVERY OF MODIFIED NUCLEOSIDE, NUCLEOTIDE, AND NUCLEIC ACID COMPOSITIONS” (ModernaTX, Inc., priority 2013, published 2019).

Key:
Format in all cases: in vivo
[1] = tested on: mice; assay: Example 18: time course LNP IV in mice, serum EPO/G-CSF ELISA (Table 35); details: for protein expression detectable out to: mice IV; for EPO / G-CSF Serum Concentration: mice, LNP IV
Description: (§1) Formulations, listed in Table 33, were characterized by particle size, zeta potential, and encapsulation.
LNP formulations, shown in Table 33 (above), were administered to mice (n=5) intravenously (IV) at a single modified mRNA dose of 0.5, 0.05 or 0.005 mg/kg. The mice were bled at 8 hours, 24 hours, 72 hours and 6 days after they were administered with G-CSF or EPO modified mRNA formulations to determine protein expression using ELISA.

[2] = tested on: non-human primates (cynomolgus monkey); assay: Example 21: LNP IV in non-human primates, serum EPO/G-CSF ELISA (Table 37); details: for protein expression detectable out to: NHP IV
Description: as §1
LNP formulations, shown in Table 33 (above), were administered to non-human primates (NHP) (cynomolgus monkey) (n=2) as a bolus intravenous injection (IV) over approximately 30 seconds using a hypodermic needle, which may be attached to a syringe/abbocath or butterfly if needed. The NHP were administered a single modified mRNA IV dose of 0.05 mg/kg of EPO or G-CSF or 0.005 mg/kg of EPO in a dose volume of 0.5 mL/kg. The NHPs were bled 5-6 days before dosing with the modified mRNA LNP formulations to determine protein expression in the serum and a baseline complete blood count. After administration with the modified mRNA formulation the NHP were bled at 8, 24, 48 and 72 hours to determined protein expression. At 24 and 72 hours after administration the complete blood count of the NHP was also determined. Protein expression of G-CSF and EPO was determined by ELISA. Urine from the NHPs was collected over the course of the entire experiment and analyzed to evaluate clinical safety. Samples were collected from the NHPs after they were administered with G-CSF or EPO modified mRNA formulations to determine protein expression using ELISA. Clinical chemistry, hematology, urinalysis and cytokines of the non-human primates were also analyzed.

[3] = tested on: non-human primates (cynomolgus monkey); assay: Example 22: LNP IV in non-human primates, serum G-CSF/EPO ELISA (Tables 38, 39); details: 0.005 mg/kg IV
Description: LNP formulations, shown in Table 33 (above), were administered to non-human primates (NHP) (cynomolgus monkey) (n=2) as intravenous injection (IV). The NHP were administered a single modified mRNA IV dose of 0.5 mg/kg, 0.05 mg/kg or 0.005 mg/kg of G-CSF or EPO in a dose volume of 0.5 mL/kg. The NHPs were bled before dosing with the modified mRNA LNP formulations to determine protein expression in the serum and a baseline complete blood count. After administration with the G-CSF modified mRNA formulation the NHP were bled at 8, 24, 48 and 72 hours to determined protein expression. After administration with the EPO modified mRNA formulation the NHP were bled at 8, 24, 48, 72 hours and 7 days to determined protein expression.
Samples collected from the NHPs after they were administered with G-CSF or EPO modified mRNA formulations were analyzed by ELISA to determine protein expression. Neutrophil and reticulocyte count was also determined pre-dose, 24 hours, 3 days, 7 days, 14 days and 18 days after administration of the modified G-CSF or EPO formulation.

B1: EPO: modified mRNA encoding human erythropoietin, SEQ ID NO: 7, Cap1, fully modified with 5-methylcytosine and pseudouridine; LNP NPA-060-1 in Examples 17-22 (nucleic acid)
chain: GGGAAAUAAGAGAGAAAAGAAGAGUAAGAAGAAAUAUAAGAGCCACCAUGGGAGUGCACGAGUGUCCCGCGUGGUUGUGGUUGCUGCUGUCGCUCUUGAGCCUCCCACUGGGACUGCCUGUGCUGGGGGCACCACCCAGAUUGAUCUGCGACUCACGGGUACUUGAGAGGUACCUUCUUGAAGCCAAAGAAGCCGAAAACAUCACAACCGGAUGCGCCGAGCACUGCUCCCUCAAUGAGAACAUUACUGUACCGGAUACAAAGGUCAAUUUCUAUGCAUGGAAGAGAAUGGAAGUAGGACAGCAGGCCGUCGAAGUGUGGCAGGGGCUCGCGCUUUUGUCGGAGGCGGUGUUGCGGGGUCAGGCCCUCCUCGUCAACUCAUCACAGCCGUGGGAGCCCCUCCAACUUCAUGUCGAUAAAGCGGUGUCGGGGCUCCGCAGCUUGACGACGUUGCUUCGGGCUCUGGGCGCACAAAAGGAGGCUAUUUCGCCGCCUGACGCGGCCUCCGCGGCACCCCUCCGAACGAUCACCGCGGACACGUUUAGGAAGCUUUUUAGAGUGUACAGCAAUUUCCUCCGCGGAAAGCUGAAAUUGUAUACUGGUGAAGCGUGUAGGACAGGGGAUCGCUGAUAAGCUGCCUUCUGCGGGGCUUGCCUUCUGGCCAUGCCCUUCUUCUCUCCCUUGCACCUGUACCUCUUGGUCUUUGAAUAAAGCCUGAGUAGGAAG
modifications: Cap1, 5-methylcytosine, pseudouridine
protein expression detectable out to [1]: 6 days
protein expression detectable out to ([1]; 0.005 mg/kg and 0.05 mg/kg): 3 days
EPO / G-CSF Serum Concentration ([1]; 0.005 mg/kg, 8 hours): 12,508.3 pg/ml
EPO / G-CSF Serum Concentration ([1]; 0.005 mg/kg, 24 hours): 6,803.0 pg/ml
EPO / G-CSF Serum Concentration ([1]; 0.05 mg/kg, 8 hours): 92,139.9 pg/ml
EPO / G-CSF Serum Concentration ([1]; 0.05 mg/kg, 24 hours): 54,389.4 pg/ml
EPO / G-CSF Serum Concentration ([1]; 0.5 mg/kg, 8 hours): 498,515.3 pg/ml
EPO / G-CSF Serum Concentration ([1]; 0.5 mg/kg, 24 hours): 160,566.3 pg/ml
EPO / G-CSF Serum Concentration ([1]; 0.5 mg/kg, 72 hours): 3,492.5 pg/ml
EPO / G-CSF Serum Concentration ([1]; 0.5 mg/kg, 6 days): 21.2 pg/mL
Average Serum Concentration ([2]; 0.005 mg/kg IV, 8 hours): 387 pg/mL
Female NHP Serum Concentration ([2]; 0.005 mg/kg IV, 8 hours): 523 pg/mL
Male NHP Serum Concentration ([2]; 0.005 mg/kg IV, 8 hours): 250 pg/mL
Average Serum Concentration ([2]; 0.005 mg/kg IV, 24 hours): 208 pg/mL
Female NHP Serum Concentration ([2]; 0.005 mg/kg IV, 24 hours): 302 pg/mL
Male NHP Serum Concentration ([2]; 0.005 mg/kg IV, 24 hours): 113 pg/mL
Average Serum Concentration ([2]; 0.005 mg/kg IV, 48 hours): <7.8 pg/mL
Female NHP Serum Concentration ([2]; 0.005 mg/kg IV, 48 hours): <7.8 pg/mL
Male NHP Serum Concentration ([2]; 0.005 mg/kg IV, 48 hours): <7.8 pg/mL
Average Serum Concentration ([2]; 0.005 mg/kg IV, 72 hours): 0 pg/mL
Female NHP Serum Concentration ([2]; 0.005 mg/kg IV, 72 hours): 0 pg/mL
Male NHP Serum Concentration ([2]; 0.005 mg/kg IV, 72 hours): 0 pg/mL
Average Serum Concentration ([2]; 0.005 mg/kg IV, Pre-bleed): 0 pg/mL
Female NHP Serum Concentration ([2]; 0.005 mg/kg IV, Pre-bleed): 0 pg/mL
Male NHP Serum Concentration ([2]; 0.005 mg/kg IV, Pre-bleed): 0 pg/mL
Average Serum Concentration ([2]; 0.05 mg/kg IV, 8 hours): 13,465 pg/ml
Female NHP Serum Concentration ([2]; 0.05 mg/kg IV, 8 hours): 19,858 pg/ml
Male NHP Serum Concentration ([2]; 0.05 mg/kg IV, 8 hours): 7,072 pg/ml
Average Serum Concentration ([2]; 0.05 mg/kg IV, 24 hours): 11,546 pg/ml
Female NHP Serum Concentration ([2]; 0.05 mg/kg IV, 24 hours): 18,178 pg/ml
Male NHP Serum Concentration ([2]; 0.05 mg/kg IV, 24 hours): 4,913 pg/ml
Average Serum Concentration ([2]; 0.05 mg/kg IV, 48 hours): 2,895 pg/ml
Female NHP Serum Concentration ([2]; 0.05 mg/kg IV, 48 hours): 5,291 pg/ml
Male NHP Serum Concentration ([2]; 0.05 mg/kg IV, 48 hours): 498 pg/mL
Average Serum Concentration ([2]; 0.05 mg/kg IV, 72 hours): 402 pg/mL
Female NHP Serum Concentration ([2]; 0.05 mg/kg IV, 72 hours): 744 pg/mL
Male NHP Serum Concentration ([2]; 0.05 mg/kg IV, 72 hours): 60 pg/mL
Average Serum Concentration ([2]; 0.05 mg/kg IV, Pre-bleed): 0 pg/mL
Female NHP Serum Concentration ([2]; 0.05 mg/kg IV, Pre-bleed): 0 pg/mL
Male NHP Serum Concentration ([2]; 0.05 mg/kg IV, Pre-bleed): 0 pg/mL
protein expression detectable out to ([2]; 0.005 mg/kg): 48 h
protein expression detectable out to ([2]; 0.05 mg/kg): 72 h
Female NHP Serum G-CSF / EPO Concentration ([3]; 8 hours): 523 pg/mL
Male NHP Serum G-CSF / EPO Concentration ([3]; 8 hours): 250 pg/mL
Female NHP Serum G-CSF / EPO Concentration ([3]; 24 hours): 302 pg/mL
Male NHP Serum G-CSF / EPO Concentration ([3]; 24 hours): 113 pg/mL
Female NHP Serum G-CSF / EPO Concentration ([3]; 48 hours): 11 pg/mL
Male NHP Serum G-CSF / EPO Concentration ([3]; 48 hours): 29 pg/mL
Female NHP Serum G-CSF / EPO Concentration ([3]; 72 hours): <7.8 pg/mL
Male NHP Serum G-CSF / EPO Concentration ([3]; 72 hours): <7.8 pg/mL
Female NHP Serum G-CSF / EPO Concentration ([3]; 7 days): <7.8 pg/mL
